Test results as given in patent US20250361322A1 (ICONIC THERAPEUTICS, published 2025).

Legend:
[1] = molecular target: T1, human Tissue Factor on human TF-positive cells (human, UniProt P13726 33-295); assay: competition flow cytometry on MDA-MB-231 cells: antibody titration first, then 20 nM FVII-Fc-Alexa488 as the blocked ligand
T1 construct: also called hTF; CD142
Experimental: (§1) After another 1 hr incubation on ice, cells were washed, stained with a viability dye, and analyzed by flow cytometry. The Alexa488 fluorescence data from viable cells was summarized using median fluorescence intensity.

human TF ECD-His6 = molecular target: T2, human TF ECD-His6 (human, UniProt P13726 33-251); assay: BLI (ForteBio Octet)
T2 construct: Expi293-derived; Biacore used TF-His; also called TF-His; hTF
Experimental: (§2) Kinetic measurements for the anti-TF antibodies were conducted on an Octet QK384 (Pall ForteBio, Fremont, CA, USA) or a Biacore (GE Healthcare Bio-Sciences).
(§3) Briefly, ForteBio affinity measurements were performed by loading IgGs on-line onto AHC sensors. Sensors were equilibrated off-line in assay buffer for 30 min and then monitored on-line for 60 seconds for baseline establishment. Sensors with loaded IgGs were exposed to 100 nM antigen (human, cynomolgus, or mouse TF) for 3 min, afterwards they were transferred to assay buffer for 3 min for off-rate measurement. Alternatively, binding measurements were obtained by loading biotinylated TF monomer on SA sensors followed by exposure to 100 nM antibody Fab in solution. Kinetic data was analyzed and fitted using a 1:1 Langmuir binding model and the KD was calculated by dividing the koff by the kₒₙ.

[2] = molecular target: T3, cynomolgus monkey TF ECD-His6 (cynomolgus monkey (Macaca fascicularis)); assay: BLI (ForteBio Octet)
T3 construct: Expi293-derived; also called TF-His; cTF
T3 chain: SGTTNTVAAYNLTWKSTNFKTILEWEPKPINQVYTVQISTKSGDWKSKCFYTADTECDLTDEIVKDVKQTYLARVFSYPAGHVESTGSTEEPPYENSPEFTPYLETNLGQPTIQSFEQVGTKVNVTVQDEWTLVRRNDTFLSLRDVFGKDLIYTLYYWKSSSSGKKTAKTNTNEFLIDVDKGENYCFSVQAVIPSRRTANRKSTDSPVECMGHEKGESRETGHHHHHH
Experimental: as §2, §3

pig TF ECD-His = molecular target: T4, pig TF ECD-His (pig (Sus scrofa)); assay: SPR (Biacore), antibody captured by anti-human IgG
T4 construct: also called pig TF-His; pTF
T4 chain: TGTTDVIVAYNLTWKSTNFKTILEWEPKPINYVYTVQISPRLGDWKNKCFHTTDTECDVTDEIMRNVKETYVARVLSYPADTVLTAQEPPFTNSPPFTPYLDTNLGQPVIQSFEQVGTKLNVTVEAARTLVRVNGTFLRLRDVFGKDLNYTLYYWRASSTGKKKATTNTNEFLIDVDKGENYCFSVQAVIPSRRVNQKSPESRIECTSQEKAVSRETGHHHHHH
Experimental: (§4) For pig TF Biacore-based measurements, a given anti-TF antibody was captured by an anti-human IgG antibody covalently coupled to a CM5 chip (GE Healthcare Bio-Sciences). Association between the anti-TF antibodies and a five-point three-fold titration of pig TF-His starting at 100 nM was measured for 180 to 240 sec. Subsequently, dissociation between the anti-TF antibody and TF-His was measured for 1800 sec. Kinetic data was analyzed and fitted globally using a 1:1 binding model.
(§5) For rabbit TF Biacore-based measurements, a given anti-TF antibody was captured by an anti-human IgG antibody covalently coupled to a CM5 chip (GE Healthcare Bio-Sciences). Association between the anti-TF antibodies and a five-point three-fold titration of rabbit TF-His starting at 100 nM was measured for 180 to 240 sec. Subsequently, dissociation between the anti-TF antibody and TF-His was measured for 1800 sec. Kinetic data was analyzed and fitted globally using a 1:1 binding model.

rabbit TF ECD-His = molecular target: T5, rabbit TF ECD-His (rabbit (Oryctolagus cuniculus), UniProt P24055 33-250); assay: SPR (Biacore), antibody captured by anti-human IgG
T5 construct: also called rabbit TF-His
Experimental: as §4, §5

[3] = molecular target: T6, full-length mouse TF with a C-terminal FLAG tag on Flp-In-CHO cells (mouse, UniProt P20352 29-294); assay: flow cytometry, antibody titration on CHO cells expressing mouse TF
T6 construct: also called CHO-mTF; mouse TF-positive CHO cells
Experimental: (§6) After 2 washes, dead cells were labeled with TO-PRO-3 Iodide (ThermoFisher Scientific) and samples were analyzed on a CytoFLEX flow cytometer (Beckman Coulter, Brea, CA, USA) or Novocyte flow cytometer (ACEA Biosciences, San Diego, CA, USA). The median fluorescence intensities (MFIs) at each dilution were plotted and cell EC₅₀'s were derived using a 4-parameter binding model in Prism (GraphPad, La Jolla, CA, USA).

[4] = molecular target: T1, human Tissue Factor on human …; assay: flow cytometry, antibody titration on HCT-116 cells (endogenous human TF), 4-parameter fit of MFI
Experimental: as §6

[5] = molecular target: T6, full-length mouse TF with a C-terminal …; assay: flow cytometry on CHO cells expressing mouse TF, MFI at 250 nM antibody
Experimental: as §6

pig TF-His = molecular target: T7, pig TF-His (Pig (Sus scrofa)); assay: Biacore SPR, antibody captured by anti-human IgG on CM5, pig TF-His titrated
T7 construct: also called pig TF ECD-His; pTF
T7 chain: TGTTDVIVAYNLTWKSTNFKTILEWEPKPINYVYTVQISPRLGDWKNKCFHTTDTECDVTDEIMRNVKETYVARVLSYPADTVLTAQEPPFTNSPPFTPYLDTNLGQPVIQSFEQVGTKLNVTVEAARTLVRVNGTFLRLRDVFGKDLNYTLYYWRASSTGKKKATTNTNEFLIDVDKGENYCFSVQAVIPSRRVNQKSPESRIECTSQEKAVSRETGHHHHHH
Experimental: (§7) The ability of certain antibodies was tested for binding to pig TF. For pig TF Biacore-based measurements, a given anti-TF antibody was captured by an anti-human IgG antibody covalently coupled to a CM5 chip (GE Healthcare Bio-Sciences). Association between the anti-TF antibodies and a five-point three-fold titration of pig TF-His starting at 100 nM was measured for 180 to 240 sec. Subsequently, dissociation between the anti-TF antibody and TF-His was measured for 1800 sec. Kinetic data was analyzed and fitted globally using a 1:1 binding model.

[6] = molecular target: T8, rabbit TF ECD-His (TF-His) protein (rabbit (Oryctolagus cuniculus), UniProt P24055 33-250); assay: Biacore; antibody captured by anti-human IgG on CM5 chip, titration of rabbit TF-His
T8 construct: also called rabbit TF-His
Experimental: The ability of certain antibodies was tested for binding to rabbit TF. For rabbit TF Biacore-based measurements, a given anti-TF antibody was captured by an anti-human IgG antibody covalently coupled to a CM5 chip (GE Healthcare Bio-Sciences). Association between the anti-TF antibodies and a five-point three-fold titration of rabbit TF-His starting at 100 nM was measured for 180 to 240 sec. Subsequently, dissociation between the anti-TF antibody and TF-His was measured for 1800 sec. Kinetic data was analyzed and fitted globally using a 1:1 binding model.

[7] = molecular target: T9, pig TF ECD-His (TF-His) protein (pig (Sus scrofa)); assay: Biacore; antibody captured by anti-human IgG on CM5 chip, titration of pig TF-His
T9 construct: also called pig TF-His; pTF
T9 chain: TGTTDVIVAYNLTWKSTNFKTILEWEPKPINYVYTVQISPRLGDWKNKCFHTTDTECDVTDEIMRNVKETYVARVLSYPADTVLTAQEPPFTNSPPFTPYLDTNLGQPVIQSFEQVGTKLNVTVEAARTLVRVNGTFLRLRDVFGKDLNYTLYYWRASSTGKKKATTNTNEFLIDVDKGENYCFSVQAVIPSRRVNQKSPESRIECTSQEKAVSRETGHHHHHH
Experimental: as §7

[8] = molecular target: T10, rTF (rat TF) construct on HEK293 cells (rat, UniProt P42533 29-252); assay: live cell staining, HEK293 cells
T10 construct: not shown: transmembrane/cytoplasmic anchor of the cell-surface construct

[9] = molecular target: T1, human Tissue Factor on human …; assay: competition flow cytometry on MDA-MB-231 cells: unlabeled antibody titration first, then 20 nM 39A-Alexa488 as the competitor
Experimental: as §1

[10] = molecular target: T1, human Tissue Factor on human …; assay: competition flow cytometry on MDA-MB-231 cells: antibody titration first, then 20 nM FVII-Fc-Alexa488 as the blocked ligand; remark: listed apart in the source

T5 sequence (P24055 other isoform, or with tags, fused parts or gaps): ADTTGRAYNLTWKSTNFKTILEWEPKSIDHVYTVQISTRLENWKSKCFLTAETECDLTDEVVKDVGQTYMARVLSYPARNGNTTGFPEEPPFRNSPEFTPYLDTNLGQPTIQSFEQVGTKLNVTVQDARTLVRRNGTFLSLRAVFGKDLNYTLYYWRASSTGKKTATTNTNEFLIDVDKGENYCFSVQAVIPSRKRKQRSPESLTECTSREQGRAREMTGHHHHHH
T8 sequence (P24055 other isoform, or with tags, fused parts or gaps): as above
T10 sequence (P42533 29-252 limits assumed): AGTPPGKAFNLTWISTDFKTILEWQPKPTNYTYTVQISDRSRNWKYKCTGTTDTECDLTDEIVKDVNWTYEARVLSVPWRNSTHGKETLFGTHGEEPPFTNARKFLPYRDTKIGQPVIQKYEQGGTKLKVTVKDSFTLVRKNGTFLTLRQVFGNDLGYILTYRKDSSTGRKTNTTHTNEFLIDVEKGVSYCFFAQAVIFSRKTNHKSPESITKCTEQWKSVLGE

B1: 29D (antibody, human IgG1, V domains shown)
VH: QVQLVESGGGVVQPGRSLRLSCAASGFTFHSRGMHWVRQAPGKGLEWVAVITYDGINKYYADSVEGRFTISRDNSKNTLYLQMNSLRAEDTAVYYCARDGVYYGVYDYWGQGTLVTVSS
VL: not shown
notes: Human IgG1; also called antibody designated 29D
IC50 (read off the curve) [1]: ~2 nM | Kd (human TF ECD-His6): 3.3 nM | Kd [2]: 12 nM | binding result (pig TF ECD-His): no binding (tested: titration starting at 100 nM) | binding result (rabbit TF ECD-His): no binding (tested: titration starting at 100 nM) | binding result [3]: no binding (tested: 250 nM) | EC50 [4]: 0.237 nM | MFI at 250 nM [5]: 30000

B2: 29D (antibody, V domains shown)
VH: QVQLVESGGGVVQPGRSLRLSCAASGFTFHSRGMHWVRQAPGKGLEWVAVITYDGINKYYADSVEGRFTISRDNSKNTLYLQMNSLRAEDTAVYYCARDGVYYGVYDYWGQGTLVTVSS
VL: not shown
notes: Human IgG (captured by anti-human IgG in the Biacore assay); also called antibody designated 29D
binding result (pig TF-His): no binding

B3: anti-TF antibody 29D (antibody, human IgG1, V domains shown)
VH: QVQLVESGGGVVQPGRSLRLSCAASGFTFHSRGMHWVRQAPGKGLEWVAVITYDGINKYYADSVEGRFTISRDNSKNTLYLQMNSLRAEDTAVYYCARDGVYYGVYDYWGQGTLVTVSS
VL: not shown
notes: Human IgG1
binding result [6]: no binding | binding result [7]: no binding

B4: TF-011 (antibody, V domains shown)
VH: EVQLLESGGGLVQPGGSLRLSCAASGFTFSNYAMSWVRQAPGKGLEWVSSISGSGDYTYYTDSVKGRFTISRDNSKNTLYLQMNSLRAEDTAVYYCARSPWGYYLDSWGQGTLVTVSS
VL: DIQMTQSPPSLSASAGDRVTITCRASQGISSRLAWYQQKPEKAPKSLIYAASSLQSGVPSRFSGSGSGTDFTLTISSLQPEDFATYYCQQYNSYPYTFGQGTKLEIK
notes: Previously described anti-TF antibody; also called tisotumab
binding result [8]: no binding | IC50 [9]: 0.61 nM | IC50 [10]: 1.01 nM

B5: 1G (antibody, human IgG1, V domains shown)
VH: EVQLLESGGGLVQPGGSLRLSCAASGFTFSSYAMAWVRQAPGKGLEWVSAISGSGGLTYYADSVKGRFTISRDNSKNTLYLQMNSLRAEDTAVYYCAKAPYGYYMDVWGKGTTVTVSS
VL: not shown
notes: Human IgG1; also called antibody designated 1G
IC50 (read off the curve) [1]: ~1 nM | Kd (human TF ECD-His6): 2.2 nM | Kd [2]: 2.7 nM | binding result (pig TF ECD-His): no binding (tested: titration starting at 100 nM) | binding result (rabbit TF ECD-His): no binding (tested: titration starting at 100 nM) | binding result [3]: no binding (tested: 250 nM) | EC50 [4]: 0.058 nM | MFI at 250 nM [5]: 4300

B6: 1G (antibody, V domains shown)
VH: EVQLLESGGGLVQPGGSLRLSCAASGFTFSSYAMAWVRQAPGKGLEWVSAISGSGGLTYYADSVKGRFTISRDNSKNTLYLQMNSLRAEDTAVYYCAKAPYGYYMDVWGKGTTVTVSS
VL: not shown
notes: Human IgG (captured by anti-human IgG in the Biacore assay); also called antibody designated 1G
binding result (pig TF-His): no binding

B7: anti-TF antibody 1G (antibody, human IgG1, V domains shown)
VH: EVQLLESGGGLVQPGGSLRLSCAASGFTFSSYAMAWVRQAPGKGLEWVSAISGSGGLTYYADSVKGRFTISRDNSKNTLYLQMNSLRAEDTAVYYCAKAPYGYYMDVWGKGTTVTVSS
VL: not shown
notes: Human IgG1
binding result [6]: no binding | binding result [7]: no binding
